Assay results published in patent publication US20210332135A1 (ANTIBODY BIOPHARM, published 2021).
Where a chain is given by its changes, count along the chain named.

B1: AbD066, bi-specific GCT Ab against HER2 and CD47 (bispecific antibody, V domains shown)
VH: EVQLVESGGGLVQPGGSLRLSCAASGFNIKDTYIHWVRQAPGKEREWVARIYPTNGYTRYADSVKGRFTISRDNAKDTVYLQMNSLRAEDTAVYYCSRWGGDGFYAMDYWGQGTLVTVSS
VL: ELQVIQPDKSVSVAAGESAILHCTVTSLIPVGPIQWFRGAGPARELIYNQKEGHFPRVTTVSESTKRNNMDFSIRIGNITPADAGTYYCVKFRKGSPDDVEFKSGAGTELSVRA
notes: Anti-HER2 single domain on IgG1 heavy chain, SIRPa domain on kappa chain; Fc of IgG1 wild type; Parents named as H069 and S012; also called ABP366 (AbD066 and AbD068-1)
B2: AbD068-1, bi-specific GCT Ab against HER2 and CD47 (bispecific antibody, human IgG1, kappa, V domains shown)
VH: QVQLVQSGGGLVQAGGSLRLSCAASGRTFSSYAMAWFRQAPGKEREFVAAISWSGANIYVADSVKGRFTISRDNAKDTVYLQMNSLKPEDTAVYYCAVKLGFAPVEERQYDYWGQGTQVTVSS
VL: not shown
notes: Anti-HER2 single domain on IgG1 heavy chain, SIRPa domain on kappa chain; Fc of IgG1 wild type; Parents named as H16 (H016) and S007; also called ABP366 (AbD066 and AbD068-1)
B3: AbD036, bi-specific GCT Ab against PD-L1 and CD47 (bispecific antibody, human IgG1, kappa, L234A L235A)
heavy: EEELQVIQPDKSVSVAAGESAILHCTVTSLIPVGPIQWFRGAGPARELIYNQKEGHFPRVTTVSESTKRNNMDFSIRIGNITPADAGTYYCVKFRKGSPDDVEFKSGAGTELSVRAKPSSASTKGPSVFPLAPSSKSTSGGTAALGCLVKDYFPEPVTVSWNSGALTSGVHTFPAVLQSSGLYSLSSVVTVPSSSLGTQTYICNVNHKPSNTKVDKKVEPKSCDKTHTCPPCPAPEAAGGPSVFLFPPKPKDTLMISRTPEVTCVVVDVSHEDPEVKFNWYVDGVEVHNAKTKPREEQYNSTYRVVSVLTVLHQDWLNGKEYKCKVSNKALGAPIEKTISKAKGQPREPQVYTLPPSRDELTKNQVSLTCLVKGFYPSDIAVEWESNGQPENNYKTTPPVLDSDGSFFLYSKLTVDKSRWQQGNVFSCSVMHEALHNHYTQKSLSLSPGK
light: DSPDRPWNPPTFSPALLVVTEGDNATFTCSFSNTSESFVLNWYRMSPSNQTDKLAAFPEDRSQPGQDCRFRVTQLPNGRDFHMSVVRARRNDSGTYLCGAISRAPKAQIKESLRAELRVTERRAEVSSRTVAAPSVFIFPPSDEQLKSGTASVVCLLNNFYPREAKVQWKVDNALQSGNSQESVTEQDSKDSTYSLSSTLTLSKADYEKHKVYACEVTHQGLSSPVTKSFNRGEC
notes: SIRPa domain on IgG1 heavy chain, PD-1 IgV domain on kappa chain; also called ABP336
B4: AbD037, bi-specific GCT Ab against PD-L1 and CD47 (bispecific antibody, human IgG1, kappa, L234A L235A)
heavy: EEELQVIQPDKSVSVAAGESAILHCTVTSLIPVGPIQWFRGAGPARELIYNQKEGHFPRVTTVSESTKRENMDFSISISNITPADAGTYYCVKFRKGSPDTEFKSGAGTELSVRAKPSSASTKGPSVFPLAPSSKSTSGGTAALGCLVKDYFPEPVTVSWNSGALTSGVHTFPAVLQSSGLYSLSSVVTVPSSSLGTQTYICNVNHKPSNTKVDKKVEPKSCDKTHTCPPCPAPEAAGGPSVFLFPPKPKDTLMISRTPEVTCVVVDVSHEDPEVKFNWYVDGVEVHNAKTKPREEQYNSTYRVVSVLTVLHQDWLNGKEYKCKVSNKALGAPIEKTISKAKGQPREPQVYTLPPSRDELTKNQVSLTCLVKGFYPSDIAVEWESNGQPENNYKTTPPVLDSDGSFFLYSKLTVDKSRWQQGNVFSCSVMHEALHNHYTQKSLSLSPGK
light: B3 light with R103L
notes: SIRPa domain on IgG1 heavy chain, PD-1 IgV domain on kappa chain; Parents named as P048 and S007; also called ABP336

What was measured:
[1] = target: T1, recombinant CD47 extracellur domain protein (UniProt Q08722 19-139, limits assumed); assay: ELISA
T1 construct: extracellular domain; ELISA antigen
T1 sequence (Q08722 19-139 limits assumed): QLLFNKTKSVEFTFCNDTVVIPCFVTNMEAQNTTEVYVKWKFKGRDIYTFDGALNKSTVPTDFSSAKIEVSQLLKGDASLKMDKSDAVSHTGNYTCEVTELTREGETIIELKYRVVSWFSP

[2] = target: T2, recombinant HER2 extracellur domain protein (UniProt P04626 23-652); assay: ELISA
T2 construct: extracellular domain; ELISA antigen

[3] = target: T3, HER2 and CD47 double positive CHO cell pool (UniProt P04626 23-1255; Q08722 19-323, limits assumed); assay: flow cytometry, double positive against single positive CHO cell pools
T3 construct: whole, on cells; Two separate membrane proteins on one cell, not a complex; also called CD47+HER2+ double positive cells; double targets positive CHO cell

[4] = target: T4, recombinant PD-L1 extracellur domain protein (UniProt Q9NZQ7 19-238, limits assumed); assay: ELISA
T4 construct: extracellular domain; ELISA antigen
T4 sequence (Q9NZQ7 19-238 limits assumed): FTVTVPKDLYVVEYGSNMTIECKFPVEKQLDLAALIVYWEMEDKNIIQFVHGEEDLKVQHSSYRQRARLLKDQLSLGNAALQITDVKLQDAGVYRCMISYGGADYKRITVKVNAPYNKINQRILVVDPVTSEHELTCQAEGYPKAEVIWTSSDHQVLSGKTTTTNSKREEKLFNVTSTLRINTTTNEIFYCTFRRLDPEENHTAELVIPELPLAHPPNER

[5] = target: T5, PD-L1 and CD47 double positive CHO cell pool (UniProt Q9NZQ7 19-290; Q08722 19-323, limits assumed); assay: flow cytometry, double positive against single positive CHO cell pools
T5 construct: whole, on cells; Two separate membrane proteins on one cell, not a complex; also called CD47 and PD-L1 double positive cells; double targets positive CHO cell
T5 sequence (Q9NZQ7 19-290 limits assumed, chain 1 of 2): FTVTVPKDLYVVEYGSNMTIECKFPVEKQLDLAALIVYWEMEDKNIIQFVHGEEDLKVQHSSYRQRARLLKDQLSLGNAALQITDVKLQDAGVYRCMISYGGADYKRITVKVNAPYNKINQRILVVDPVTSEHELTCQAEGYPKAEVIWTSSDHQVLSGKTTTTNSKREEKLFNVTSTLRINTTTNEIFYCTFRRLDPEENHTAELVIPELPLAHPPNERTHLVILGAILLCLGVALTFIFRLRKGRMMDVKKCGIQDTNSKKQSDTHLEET
T5 sequence (Q08722 19-323 limits assumed, chain 2 of 2): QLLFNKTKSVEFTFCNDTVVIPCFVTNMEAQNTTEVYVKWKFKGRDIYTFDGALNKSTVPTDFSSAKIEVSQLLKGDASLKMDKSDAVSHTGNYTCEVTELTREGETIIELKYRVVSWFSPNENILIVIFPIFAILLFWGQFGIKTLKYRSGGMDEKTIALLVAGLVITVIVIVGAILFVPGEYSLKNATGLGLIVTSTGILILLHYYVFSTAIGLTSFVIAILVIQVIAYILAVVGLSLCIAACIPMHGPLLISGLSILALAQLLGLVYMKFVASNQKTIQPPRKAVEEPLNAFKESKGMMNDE

Binder | binding acitivity [1] | binding acitivity [2] | fold stronger staining than on the single target positive cells [3] | binding acitivity [4] | fold stronger staining than on the single target positive cells [5]
B1 | > 100 nM | – | – | – | –
B2 | > 100 nM | ~100 nM | ~100 fold | – | –
B3 | > 100 nM | – | – | > 100 nM | ~10 fold
B4 | > 100 nM | – | – | > 100 nM | ~10 fold
